Measured values: patent publication US20180037641A1

Assays:
[1] = molecular target: recombinant mouse tau, longest isoform mTau40 (432 aa) (mouse) (UniProt P10637); assay: SPR (BIAcore 2000), tau immobilised on CM-5 chip, antibody injected 0.11-7.5 µg/ml, 1:1 Langmuir global fit
[2] = molecular target: recombinant human tau, longest isoform hTau40 (441 aa) (human) (UniProt P10636); assay: as above
[3] = molecular target: recombinant mouse tau, longest isoform mTau40 (432 aa) (mouse) (UniProt P10637); assay: SPR (Biacore), tau immobilised on CM-5 chip, antibody injected 0.78-400 nM
[4] = molecular target: recombinant human tau, longest isoform hTau40 (441 aa) (human) (UniProt P10636); assay: as above
RD(LM)-HA = RD(LM)-HA (UniProt P10636); assay: cell-based or functional assay
RD(LM)-YFP = RD(LM)-YFP (UniProt P10636); assay: cell-based or functional assay
[5] = molecular target: P301S human tau, T34 isoform (1N4R), of P301S tg mice (line PS19) (human) (UniProt P10636); assay: cell-based or functional assay
[6] = molecular target: tau RD aggregates passing between HEK293 cells in the propagation assay (RD(LM) and RD(ΔK) constructs); assay: cell-based or functional assay

recombinant mouse tau, longest isoform mTau40 (432 aa) (mouse), sequence (P10637 other isoform, or with tags, fused parts or gaps limits assumed): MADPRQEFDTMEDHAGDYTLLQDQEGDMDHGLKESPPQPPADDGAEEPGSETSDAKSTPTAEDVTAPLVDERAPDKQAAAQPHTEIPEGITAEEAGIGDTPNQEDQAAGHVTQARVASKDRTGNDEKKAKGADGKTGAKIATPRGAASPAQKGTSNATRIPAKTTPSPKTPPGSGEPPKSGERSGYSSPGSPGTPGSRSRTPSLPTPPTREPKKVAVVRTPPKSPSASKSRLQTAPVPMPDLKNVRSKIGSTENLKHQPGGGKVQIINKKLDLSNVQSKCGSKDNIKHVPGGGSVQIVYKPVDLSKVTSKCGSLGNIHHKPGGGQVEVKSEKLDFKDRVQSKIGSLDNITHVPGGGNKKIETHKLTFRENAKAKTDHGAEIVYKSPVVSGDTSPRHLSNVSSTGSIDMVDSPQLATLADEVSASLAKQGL

| Kd [1] [nM] | koff [1] [s⁻¹] | kon [1] [M⁻¹ s⁻¹] | Kd [2] [nM] | koff [2] [s⁻¹] | kon [2] [M⁻¹ s⁻¹] | Kd [3] [nM] | koff [3] [s⁻¹] | kon [3] [M⁻¹ s⁻¹] | Kd [4] [nM] | koff [4] [s⁻¹] | kon [4] [M⁻¹ s⁻¹] | RD(ΔK)-YFP in the insoluble pellet fraction (detergent fractionation, Western blot) (RD(LM)-HA) [% decrease] | percentage of RD(LM)-YFP/mCherry dual positive cells (flow cytometry) (RD(LM)-YFP) [%] | antibody concentration that significantly blocked uptake and seeding activity [5] [µg/mL] | tau protein present in the cell medium (pull-down, Western blot) [6] [fold] | Substance |
| --- | --- | --- | --- | --- | --- | --- | --- | --- | --- | --- | --- | --- | --- | --- | --- | --- |
| 0.00224 | 5.1e-07 | 228000 | 6.9 | 0.00107 | 153000 | 0.00224 | 5.1e-07 | 228000 | 6.9 | 0.00107 | 153000 |  |  |  |  | HJ9.4 (antibody) |
| 0.1 | 9.16e-06 | 86100 | 0.099 | 7.51e-06 | 75500 | 0.1 | 9.16e-06 | 86100 | 0.099 | 7.51e-06 | 75500 | 60 | 1.31 | 0.5 | 10 | HJ9.3 (antibody) |
